Measured values published in patent US20120110693, “TARGETING NUCLEIC ACIDS IN MITOCHONDRIA” (published 2012).

Columns and labels:
[1] = biological target: DHFR (mouse, recombinant) (Mus musculus, UniProt P00375 SEQ:4-190); test: Southwestern blot; 10 mM Tris pH 7.5, 5 mM Mg acetate, 2 mM DTT, 4 C; settings: tags: His tag; label: 5'-32P
Protocol: The DNA substrate selected in this case corresponds to an oligonucleotide (single strand DNA) corresponding to the sequence of cytosolic tRNAAla of A. thaliana (SEQ ID NO: 4). This chemically synthesized oligonucleotide (Sigma Aldrich) and labeled at 5′ was incubated with a membrane onto which the recombinant proteins DHFR and GFP were transferred. No interaction between GFP and the oligonucleotide was observed while a signal was obtained, reflecting an interaction between DHFR and the oligonucleotide.

pSu9-GFP = pSu9-GFP (UniProt P42212 SEQ:1-307); test: stated unable to interact with tRNAAla; no effect on import; settings: label: 32P-UTP; tRNA
[2] = biological target: T1, pSu9-DHFR (mouse DHFR fused to Neurospora crassa Su9 presequence) (Mus musculus, UniProt P00375 SEQ:1-259); test: EMSA; shift increases with protein; legend names pSu9-DHFR, text says DHFR; 10 mM Tris pH 7.5, 50 mM NaCl, 1 mM MgCl2, 25 C; settings: label: 32P-UTP; tRNA
T1 chain: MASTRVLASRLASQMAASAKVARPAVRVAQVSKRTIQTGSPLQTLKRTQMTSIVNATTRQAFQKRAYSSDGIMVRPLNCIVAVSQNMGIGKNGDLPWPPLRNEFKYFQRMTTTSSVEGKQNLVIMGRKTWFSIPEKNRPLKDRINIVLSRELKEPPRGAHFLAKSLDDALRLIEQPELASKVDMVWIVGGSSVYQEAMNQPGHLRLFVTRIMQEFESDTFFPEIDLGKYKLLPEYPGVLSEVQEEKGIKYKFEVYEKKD
Protocol: The RNA-protein interaction was studied by means of the shift gel technique. The procedure used is the procedure No. TB110 of Promega, entitled <<gel shift assay system >>. The reaction is conducted in a 9 μL reaction volume comprising: […] of protein, 2 μL of gel shift buffer 5× (20% (v/v) glycerol, 5 mM MgCl₂, 2.5 mM EDTA, 2.5 mM DTT, 250 mM NACl, 50 mM Tris-HCL pH 7.5). The medium is incubated for 10 minutes at room temperature. One μL of radiolabelled tRNA (about 10 fmol corresponding to 20,000 cpm) is then added and the whole is then incubated under mild stirring at 25° C. After migration, the medium is added with one μL of load buffer (250 mM Tris-HCl pH 7.5, 40% (v/v) glycerol). The gel is prepared from a solution of 4% acrylamide/N,N′-methylene bisacrylamide (19/1) in TBE 0.5× buffer (45 mM Tris 45, 1.25 mM EDTA pH 8.3, 45 mM boric acid). The polymerization of the gel is catalyzed by adding 0.04% (w/v) APS and 0.04% (v/v) TEMED. Before charging the samples, the gel is set to a voltage of 350 V for 10 mins. Migration is then carried out for 20 mins at 350 V in the TBE 0.5× buffer. The gel is dried and then exposed against a Phosphorimager plate (Fuji) or subject to autoradiography.
The nucleic acid substrate selected in this case corresponds to the cytosolic tRNAAla of Arabidopsis thaliana (SEQ ID NO: 4). […]

Binder	binding result [1]	binding result (pSu9-GFP)	binding result [2]
tRNAAla-sequence DNA oligonucleotide (ssDNA) DNA: GGGGATGTAGCTCATATGGTAGAGCGCTCGCTTTGCATGCGAGAGGCACAGGGTTCGATTCCCTGCATCTCCACCA	binds	–	–
cytosolic tRNAAla transcript (A. thaliana) (ssRNA) RNA: GGGGAUGUAGCUCAUAUGGUAGAGCGCUCGCUUUGCAUGCGAGAGGCACAGGGUUCGAUUCCCUGCAUCUCCACCA	–	no binding	binds
